Eight molecules from patent US20260217779A1 (Chugai, published 2026) can be followed below.

T1: human CXCR3 (hCXCR3) on Ba/F3 transfectant cells (human, UniProt P49682 1-368)
T1 sequence: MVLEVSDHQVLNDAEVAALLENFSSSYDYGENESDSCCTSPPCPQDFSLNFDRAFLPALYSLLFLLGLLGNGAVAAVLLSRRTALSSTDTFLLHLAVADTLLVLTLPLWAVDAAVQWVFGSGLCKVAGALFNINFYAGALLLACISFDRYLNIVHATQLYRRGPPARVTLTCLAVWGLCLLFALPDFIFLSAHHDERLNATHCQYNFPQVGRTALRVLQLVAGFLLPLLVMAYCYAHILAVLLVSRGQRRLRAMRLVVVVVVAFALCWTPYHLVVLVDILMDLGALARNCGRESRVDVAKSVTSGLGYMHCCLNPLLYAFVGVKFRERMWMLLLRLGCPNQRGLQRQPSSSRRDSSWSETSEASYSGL

B1: hCXCL11-G1T4k.one//VHn-G1T4h.one.H435R (Fc fusion)
chain 1: FPMFKRGRCLCIGPGVKAVKVADIEKASIMYPSNNCDKIEVIITLKENKGQRCLNPKSKQARLIIKKVERKNFEPKSSDKTHTCPPCPAPELRRGPSVFLFPPKPKDTLMISRTPEVTCVVVDVSHEDPEVKFNWYVDGVEVHNAKTKPREEQYNSTYRVVSVLTVLHQDWLNGKEYKCKVSNKGLPSSIEKTISKAKGQPREPQVCTLPPSREEMTKNQVSLWCLVKGFYPSDIAVEWESNGQPENNYKTTPPVLDSDGSFFLYSKLTVDKSRWQEGNVFSCSVMHEALHNHYTQKSLSLSP
chain 2: EPKSSDKTHTCPPCPAPELRRGPSVFLFPPKPKDTLMISRTPEVTCVVVDVSHEDPEVKFNWYVDGVEVHNAKTKPREEQYNSTYRVVSVLTVLHQDWLNGKEYKCKVSNKGLPSSIEKTISKAKGQPREPQVYTLPPSRCEMTKNQVSLSCAVKGFYPSDIAVEWESNGQPENNYKTTPPVLDSDGSFFLVSKLTVDKSRWQEGNVFSCSVMHEALHNRYTQKSLSLSP
B2: hCXCL11.0009-G1T4k.one//VHn-G1T4h.one.H435R (Fc fusion)
chain 1: FIMFKRGRCLCIGPGVKAVKVADIEKASIMYPSNNCDKIEVIITLKENKGQRCLNPKSKQARLIIKKVERKNFEPKSSDKTHTCPPCPAPELRRGPSVFLFPPKPKDTLMISRTPEVTCVVVDVSHEDPEVKFNWYVDGVEVHNAKTKPREEQYNSTYRVVSVLTVLHQDWLNGKEYKCKVSNKGLPSSIEKTISKAKGQPREPQVCTLPPSREEMTKNQVSLWCLVKGFYPSDIAVEWESNGQPENNYKTTPPVLDSDGSFFLYSKLTVDKSRWQEGNVFSCSVMHEALHNHYTQKSLSLSP
chain 2: EPKSSDKTHTCPPCPAPELRRGPSVFLFPPKPKDTLMISRTPEVTCVVVDVSHEDPEVKFNWYVDGVEVHNAKTKPREEQYNSTYRVVSVLTVLHQDWLNGKEYKCKVSNKGLPSSIEKTISKAKGQPREPQVYTLPPSRCEMTKNQVSLSCAVKGFYPSDIAVEWESNGQPENNYKTTPPVLDSDGSFFLVSKLTVDKSRWQEGNVFSCSVMHEALHNRYTQKSLSLSP
B3: hCXCL11.0007-G1T4k.one//VHn-G1T4h.one.H435R (Fc fusion)
chain 1: FGMFKRGRCLCIGPGVKAVKVADIEKASIMYPSNNCDKIEVIITLKENKGQRCLNPKSKQARLIIKKVERKNFEPKSSDKTHTCPPCPAPELRRGPSVFLFPPKPKDTLMISRTPEVTCVVVDVSHEDPEVKFNWYVDGVEVHNAKTKPREEQYNSTYRVVSVLTVLHQDWLNGKEYKCKVSNKGLPSSIEKTISKAKGQPREPQVCTLPPSREEMTKNQVSLWCLVKGFYPSDIAVEWESNGQPENNYKTTPPVLDSDGSFFLYSKLTVDKSRWQEGNVFSCSVMHEALHNHYTQKSLSLSP
chain 2: EPKSSDKTHTCPPCPAPELRRGPSVFLFPPKPKDTLMISRTPEVTCVVVDVSHEDPEVKFNWYVDGVEVHNAKTKPREEQYNSTYRVVSVLTVLHQDWLNGKEYKCKVSNKGLPSSIEKTISKAKGQPREPQVYTLPPSRCEMTKNQVSLSCAVKGFYPSDIAVEWESNGQPENNYKTTPPVLDSDGSFFLVSKLTVDKSRWQEGNVFSCSVMHEALHNRYTQKSLSLSP
B4: hCXCL11.0006-G1T4k.one//VHn-G1T4h.one.H435R (Fc fusion)
chain 1: FFMFKRGRCLCIGPGVKAVKVADIEKASIMYPSNNCDKIEVIITLKENKGQRCLNPKSKQARLIIKKVERKNFEPKSSDKTHTCPPCPAPELRRGPSVFLFPPKPKDTLMISRTPEVTCVVVDVSHEDPEVKFNWYVDGVEVHNAKTKPREEQYNSTYRVVSVLTVLHQDWLNGKEYKCKVSNKGLPSSIEKTISKAKGQPREPQVCTLPPSREEMTKNQVSLWCLVKGFYPSDIAVEWESNGQPENNYKTTPPVLDSDGSFFLYSKLTVDKSRWQEGNVFSCSVMHEALHNHYTQKSLSLSP
chain 2: EPKSSDKTHTCPPCPAPELRRGPSVFLFPPKPKDTLMISRTPEVTCVVVDVSHEDPEVKFNWYVDGVEVHNAKTKPREEQYNSTYRVVSVLTVLHQDWLNGKEYKCKVSNKGLPSSIEKTISKAKGQPREPQVYTLPPSRCEMTKNQVSLSCAVKGFYPSDIAVEWESNGQPENNYKTTPPVLDSDGSFFLVSKLTVDKSRWQEGNVFSCSVMHEALHNRYTQKSLSLSP
B5: hCXCL11.0004-G1T4k.one//VHn-G1T4h.one.H435R (Fc fusion)
chain 1: FDMFKRGRCLCIGPGVKAVKVADIEKASIMYPSNNCDKIEVIITLKENKGQRCLNPKSKQARLIIKKVERKNFEPKSSDKTHTCPPCPAPELRRGPSVFLFPPKPKDTLMISRTPEVTCVVVDVSHEDPEVKFNWYVDGVEVHNAKTKPREEQYNSTYRVVSVLTVLHQDWLNGKEYKCKVSNKGLPSSIEKTISKAKGQPREPQVCTLPPSREEMTKNQVSLWCLVKGFYPSDIAVEWESNGQPENNYKTTPPVLDSDGSFFLYSKLTVDKSRWQEGNVFSCSVMHEALHNHYTQKSLSLSP
chain 2: EPKSSDKTHTCPPCPAPELRRGPSVFLFPPKPKDTLMISRTPEVTCVVVDVSHEDPEVKFNWYVDGVEVHNAKTKPREEQYNSTYRVVSVLTVLHQDWLNGKEYKCKVSNKGLPSSIEKTISKAKGQPREPQVYTLPPSRCEMTKNQVSLSCAVKGFYPSDIAVEWESNGQPENNYKTTPPVLDSDGSFFLVSKLTVDKSRWQEGNVFSCSVMHEALHNRYTQKSLSLSP
B6: hCXCL11.0003-G1T4k.one//VHn-G1T4h.one.H435R (Fc fusion)
chain 1: FAMFKRGRCLCIGPGVKAVKVADIEKASIMYPSNNCDKIEVIITLKENKGQRCLNPKSKQARLIIKKVERKNFEPKSSDKTHTCPPCPAPELRRGPSVFLFPPKPKDTLMISRTPEVTCVVVDVSHEDPEVKFNWYVDGVEVHNAKTKPREEQYNSTYRVVSVLTVLHQDWLNGKEYKCKVSNKGLPSSIEKTISKAKGQPREPQVCTLPPSREEMTKNQVSLWCLVKGFYPSDIAVEWESNGQPENNYKTTPPVLDSDGSFFLYSKLTVDKSRWQEGNVFSCSVMHEALHNHYTQKSLSLSP
chain 2: EPKSSDKTHTCPPCPAPELRRGPSVFLFPPKPKDTLMISRTPEVTCVVVDVSHEDPEVKFNWYVDGVEVHNAKTKPREEQYNSTYRVVSVLTVLHQDWLNGKEYKCKVSNKGLPSSIEKTISKAKGQPREPQVYTLPPSRCEMTKNQVSLSCAVKGFYPSDIAVEWESNGQPENNYKTTPPVLDSDGSFFLVSKLTVDKSRWQEGNVFSCSVMHEALHNRYTQKSLSLSP
B7: hCXCL11.0008-G1T4k.one//VHn-G1T4h.one.H435R (Fc fusion)
chain 1: FHMFKRGRCLCIGPGVKAVKVADIEKASIMYPSNNCDKIEVIITLKENKGQRCLNPKSKQARLIIKKVERKNFEPKSSDKTHTCPPCPAPELRRGPSVFLFPPKPKDTLMISRTPEVTCVVVDVSHEDPEVKFNWYVDGVEVHNAKTKPREEQYNSTYRVVSVLTVLHQDWLNGKEYKCKVSNKGLPSSIEKTISKAKGQPREPQVCTLPPSREEMTKNQVSLWCLVKGFYPSDIAVEWESNGQPENNYKTTPPVLDSDGSFFLYSKLTVDKSRWQEGNVFSCSVMHEALHNHYTQKSLSLSP
chain 2: EPKSSDKTHTCPPCPAPELRRGPSVFLFPPKPKDTLMISRTPEVTCVVVDVSHEDPEVKFNWYVDGVEVHNAKTKPREEQYNSTYRVVSVLTVLHQDWLNGKEYKCKVSNKGLPSSIEKTISKAKGQPREPQVYTLPPSRCEMTKNQVSLSCAVKGFYPSDIAVEWESNGQPENNYKTTPPVLDSDGSFFLVSKLTVDKSRWQEGNVFSCSVMHEALHNRYTQKSLSLSP
B8: hCXCL11.0005-G1T4k.one//VHn-G1T4h.one.H435R (Fc fusion)
chain 1: FEMFKRGRCLCIGPGVKAVKVADIEKASIMYPSNNCDKIEVIITLKENKGQRCLNPKSKQARLIIKKVERKNFEPKSSDKTHTCPPCPAPELRRGPSVFLFPPKPKDTLMISRTPEVTCVVVDVSHEDPEVKFNWYVDGVEVHNAKTKPREEQYNSTYRVVSVLTVLHQDWLNGKEYKCKVSNKGLPSSIEKTISKAKGQPREPQVCTLPPSREEMTKNQVSLWCLVKGFYPSDIAVEWESNGQPENNYKTTPPVLDSDGSFFLYSKLTVDKSRWQEGNVFSCSVMHEALHNHYTQKSLSLSP
chain 2: EPKSSDKTHTCPPCPAPELRRGPSVFLFPPKPKDTLMISRTPEVTCVVVDVSHEDPEVKFNWYVDGVEVHNAKTKPREEQYNSTYRVVSVLTVLHQDWLNGKEYKCKVSNKGLPSSIEKTISKAKGQPREPQVYTLPPSRCEMTKNQVSLSCAVKGFYPSDIAVEWESNGQPENNYKTTPPVLDSDGSFFLVSKLTVDKSRWQEGNVFSCSVMHEALHNRYTQKSLSLSP

The target in this test is T1, human CXCR3 (hCXCR3) on Ba/F3 …. Put plainly: cell-based or functional assay.
Consider B1, for which the “Luminescence value at 33 nM” value was 7.68e+06, the “Luminescence value at 100 nM” value turned out to be 1.67e+07 and the “Luminescence value at 300 nM” value came out at 1.24e+07.
As to B2, the “Activity retention rate at 33 nM” value was 13%, the “Activity retention rate at 100 nM” value was found to be 41%, the “Activity retention rate at 300 nM” value is 109% and the “Luminescence value at 33 nM” value is 966000. Moreover, the “Luminescence value at 100 nM” value amounted to 6.79e+06 and the “Luminescence value at 300 nM” value is 1.35e+07.
B3: the “Activity retention rate at 33 nM” value was 45%, the “Activity retention rate at 100 nM” value is 61%, the “Activity retention rate at 300 nM” value amounted to 78% and the “Luminescence value at 33 nM” value was 3.47e+06. In addition, the “Luminescence value at 100 nM” value came to 1.02e+07 and the “Luminescence value at 300 nM” value came to 9.71e+06.
For the molecule B4, the “Activity retention rate at 33 nM” value was 4%, the “Activity retention rate at 100 nM” value is 27%, the “Activity retention rate at 300 nM” value stood at 79% and the “Luminescence value at 33 nM” value amounted to 326000. The “Luminescence value at 100 nM” value came to 4.55e+06 and the “Luminescence value at 300 nM” value was 9.79e+06.
For B5, the “Activity retention rate at 33 nM” value came out at 41%, the “Activity retention rate at 100 nM” value was determined as 57%, the “Activity retention rate at 300 nM” value worked out at 42% and the “Luminescence value at 33 nM” value was determined as 3.15e+06. For the same molecule, the “Luminescence value at 100 nM” value came to 9.44e+06 and the “Luminescence value at 300 nM” value is 5.24e+06.
Take B6: the “Activity retention rate at 33 nM” value worked out at 49%, the “Activity retention rate at 100 nM” value is 70%, the “Activity retention rate at 300 nM” value was 90% and the “Luminescence value at 33 nM” value was found to be 3.76e+06. In addition, the “Luminescence value at 100 nM” value was 1.17e+07 and the “Luminescence value at 300 nM” value stood at 1.12e+07.
In the case of B7, the “Activity retention rate at 33 nM” value turned out to be 44%, the “Activity retention rate at 100 nM” value stood at 73%, the “Activity retention rate at 300 nM” value turned out to be 108% and the “Luminescence value at 33 nM” value came out at 3.4e+06. The “Luminescence value at 100 nM” value worked out at 1.22e+07 and the “Luminescence value at 300 nM” value is 1.34e+07.
As for B8, the “Activity retention rate at 33 nM” value came to 40%, the “Activity retention rate at 100 nM” value was 57%, the “Activity retention rate at 300 nM” value was 49% and the “Luminescence value at 33 nM” value was found to be 3.11e+06. The “Luminescence value at 100 nM” value stood at 9.59e+06 and the “Luminescence value at 300 nM” value turned out to be 6.03e+06.
